Measured values reported in US12187807B2, “Antibody molecules to C5AR1 and uses thereof” (Visterra, Inc., priority 2020, dated 2025).

T1: C5aR1 (C5aR1-U937 cells) (Homo sapiens, UniProt P21730, K279N)
T1 construct: expressed in transfected cells
T1 sequence (P21730 with tags, fused parts or gaps K279N limits assumed): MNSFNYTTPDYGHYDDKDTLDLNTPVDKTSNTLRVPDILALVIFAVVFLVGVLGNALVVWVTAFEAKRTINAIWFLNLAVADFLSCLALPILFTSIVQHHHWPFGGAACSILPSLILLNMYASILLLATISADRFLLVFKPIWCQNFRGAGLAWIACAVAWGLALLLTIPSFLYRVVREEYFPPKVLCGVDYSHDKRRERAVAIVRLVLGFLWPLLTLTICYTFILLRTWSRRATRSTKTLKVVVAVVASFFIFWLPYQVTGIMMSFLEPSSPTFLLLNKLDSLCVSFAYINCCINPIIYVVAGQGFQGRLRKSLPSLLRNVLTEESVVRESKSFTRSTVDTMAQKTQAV

T2: C5aR1 (human neutrophils) (Homo sapiens, UniProt P21730)
T2 construct: neutrophils isolated from whole blood; host or cells: human neutrophils (cryopreserved, or isolated from whole blood)
T2 sequence (P21730 1-350): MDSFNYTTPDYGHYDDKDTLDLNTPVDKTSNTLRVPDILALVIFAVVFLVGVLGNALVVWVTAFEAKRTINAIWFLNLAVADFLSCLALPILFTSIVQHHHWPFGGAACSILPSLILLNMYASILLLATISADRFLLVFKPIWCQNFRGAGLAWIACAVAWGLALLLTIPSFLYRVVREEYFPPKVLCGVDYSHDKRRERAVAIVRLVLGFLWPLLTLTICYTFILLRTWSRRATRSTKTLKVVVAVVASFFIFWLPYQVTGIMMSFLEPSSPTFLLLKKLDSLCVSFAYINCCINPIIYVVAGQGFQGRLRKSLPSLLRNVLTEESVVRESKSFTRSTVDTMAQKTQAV

T3: biotinylated peptide representing the N-terminus of C5aR1 without tyrosine sulfation (Homo sapiens, UniProt P21730)
T3 construct: the N-terminus without tyrosine sulfation
T3 sequence (P21730 1-37 limits assumed): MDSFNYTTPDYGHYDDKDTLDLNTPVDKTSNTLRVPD

T4: C5aR1 (Homo sapiens, UniProt P21730)
T4 sequence (P21730 1-350): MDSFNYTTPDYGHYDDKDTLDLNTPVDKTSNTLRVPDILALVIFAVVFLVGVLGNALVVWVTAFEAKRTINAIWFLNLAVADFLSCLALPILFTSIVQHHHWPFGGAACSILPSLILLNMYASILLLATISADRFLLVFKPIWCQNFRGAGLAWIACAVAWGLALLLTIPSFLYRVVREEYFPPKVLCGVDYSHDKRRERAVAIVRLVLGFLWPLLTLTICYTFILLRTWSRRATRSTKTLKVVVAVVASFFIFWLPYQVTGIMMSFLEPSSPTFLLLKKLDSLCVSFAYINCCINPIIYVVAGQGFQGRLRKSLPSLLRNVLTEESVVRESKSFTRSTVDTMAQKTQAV

T5: biotinylated peptide representing the N-terminus of C5aR1 with tyrosine sulfation (Homo sapiens, UniProt P21730)
T5 construct: the N-terminus with tyrosine sulfation
T5 sequence (P21730 1-37): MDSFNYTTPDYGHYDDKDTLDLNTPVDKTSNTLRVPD


Experiments:
C5aR1 (C5aR1-U937 cells) [1] = target: T1, C5aR1 (C5aR1-U937 cells); test: C5a induced calcium flux (Fluo-4), C5aR1-U937 cells; assay type: cell-based
Source text: (§1) Intracellular calcium is released into the cytoplasm by stimulation of GPCRs and acts as a second messenger of GPCR signaling, commonly used to quantify GPCR agonism and antagonism. As such, calcium flux assays using calcium sensitive dye were utilized to detect cytosolic changes in calcium concentration. […] The dye penetrated the cell membrane and became active once inside the cell. The active form of the dye became fluorescent after binding to intracellular calcium and the fluorescence was used to determine C5aR1 signaling in response to C5a addition. Specifically, stable C5aR1-U937 cells or neutrophils isolated from whole blood were stained with Fluo-4 Direct Calcium Assay kit from Thermo Fisher for 1 hour at 37° C. Next, antibody or antagonist was incubated with the cells for 30 minutes. The basal fluorescence with an excitation at 494 nm and emission at 516 nm was measured for 15 seconds. C5a was added to the cells and the fluorescence was measured over a span of four minutes. The basal read from before C5a stimulation and the max signal after C5a stimulation were used to calculate the response ratio. The potency of the antibodies was assessed for their ability to inhibit intracellular calcium release in C5aR1 expressing cells in the presence of C5a. Similar to the chemotaxis assay, the calcium flux assays were performed using engineered cells stably expressing C5aR1 as well as using human neutrophils.

[2] = target: T2, C5aR1 (human neutrophils); test: C5a induced calcium flux (Fluo-4), human neutrophils; assay type: cell-based
Source text: as §1

[3] = target: T3, biotinylated peptide representing the N-terminus of C5aR1 without tyrosine sulfation; test: Epitope mapping by biolayer interferometry, N-terminus without tyrosine sulfation; assay type: binding; set-up: key: “+” indicates binding to the listed peptide; “−” indicates lack of binding to the listed peptide; settings: 10 μg/mL of antibody, biotinylated peptide on streptavidin biosensor
Experimental: (§2) The epitope mapping was undertaken, using biolayer interferometry, on a series of exemplary anti-C5aR1 antibodies generated as described in Example 1. Briefly, for each antibody, biotinylated peptides representing ECL2, the N-terminus with tyrosine sulfation, and the N-terminus without tyrosine sulfation, were immobilized in a streptavidin biosensor. Subsequently, the biosensor was exposed to 10 μg/mL of antibody to detect antibody binding to the immobilized peptide. The results of the epitope mapping study are shown in Table 4 (“+” indicates binding to the listed peptide; “−” indicates lack of binding to the listed peptide).

[4] = target: T6, biotinylated peptide representing ECL2 of C5aR1 (Homo sapiens, UniProt P21730); test: Epitope mapping by biolayer interferometry, ECL2 peptide; assay type: binding; set-up: key: “+” indicates binding to the listed peptide; “−” indicates lack of binding to the listed peptide; settings: biolayer interferometry, 10 μg/mL of antibody, biotinylated peptide on streptavidin biosensor
T6 construct: cyclic ECL2 peptide spanning from residues R175 to C188
Experimental: as §2

C5aR1 (C5aR1-U937 cells) [5] = target: T1, C5aR1 (C5aR1-U937 cells); test: C5a induced chemotaxis (transwell), C5aR1-U937 cells; assay type: cell-based; settings: C5aR1-U937 cells; 1, 10, or 100 nM antibody; C5a 10^−6 to 10^−9.5 M
Source text: (§3) One of the primary mechanisms by which neutrophils migrate to the site of inflammation is by chemotaxis induced by a C5a/C5adesArg gradient is detected by C5aR1 signaling. Anti-C5aR1 antibodies were thus assessed in a chemotaxis assay for their ability to block C5a induced migration of neutrophils. The assay involved cell migration in a double chamber well separated by filters. The cells and inhibitors were applied into the upper chamber and the lower chamber was filled with the chemoattractant, causing the cells to migrate to the lower chamber. The inhibition activity was evaluated by counting the migrated cell numbers. Specifically, a titration of C5a was added to the bottom chamber a 96 transwell plate. Cells expressing human C5aR1 (C5aR1-U937 cells or human neutrophils) were incubated with or without antagonist and then seeded into the top chamber of the transwell plate. The cells were incubated for 2 hours. Cells that migrated to the bottom chamber were quantified using the CyQUANT cell proliferation kit following the manufacturer's protocol. The assay was performed using engineered cells stably expressing C5aR1 as well as using human neutrophils.
as §3, with “Anti-C5aR1” for “One of the primary mechanisms by which neutrophils migrate to the site of inflammation is by chemotaxis induced by a C5a/C5adesArg gradient is detected by C5aR1 signaling. Anti-C5aR1”, “were” for “were thus”
In a first experiment, C5aR1-U937 cells were seeded into the top chamber of a 96 Transwell plate in the presence of no antibody (antagonist), or of 1, 10, or 100 nM antibody (antagonist).

C5aR1 = target: T4, C5aR1; test: GeneBLAzer reporter assay (C5aR1 mediated Gα signaling); assay type: cell-based; set-up: host or cells: vendor's C5aR1 GeneBLAzer reporter cell line; settings: 10 nM of antibody, 10 nM C5a
Experimental: In addition, a GeneBLAzer reporter assay was used, which mimics the calcium flux assay. The GeneBLAzer assay kit and C5aR1 cell line were commercially available from Thermo Fisher (Catalog #K1544). The assay was performed as recommend by the manufacturer. Briefly, antibodies or antagonists were incubated for 30 minutes at 37° C. C5a was then added to the cells and incubated at 37° C. for an additional 4-5 hours. Beta-lactamase substrate was then added and incubated for 2 hours at room temperature. Fluorescent measurements for each well with an excitation/emission of 409/460 (blue) and 409/530 (green) were measured. An increase in the blue to green ratio was proportional to C5aR1 activation and was used to calculate the percent of activation for the cells in each well.
Exemplary anti-C5aR1 antibodies generated as described in Example 1 were screened for antagonist activity against human C5aR1 using the GeneBLAzer assay, as described in Example 1. Briefly, cells were pre-incubated with 10 nM of antibody followed by addition of 10 nM C5a. The engineered induction of beta-lactamase expression by C5a-C5aR1 signaling was measured using the BLA substrate and calculating the ratio of blue and green fluorescence.

[6] = target: T5, biotinylated peptide representing the N-terminus of C5aR1 with tyrosine sulfation; test: Epitope mapping by biolayer interferometry, N-terminus with tyrosine sulfation; assay type: binding; set-up: key: “+” indicates binding to the listed peptide; “−” indicates lack of binding to the listed peptide; settings: 10 μg/mL of antibody, biotinylated peptide on streptavidin biosensor
Experimental: as §2

| Molecule | inhibition of C5a induced intracellular calcium flux (C5aR1 (C5aR1-U937 cells) [1]) | inhibition of C5a induced calcium efflux [2] | Binding to Non-sulfated N-terminal peptide [3] | Binding to Cyclic ECL2 peptide [4] | inhibition of cell chemotaxis (C5aR1 (C5aR1-U937 cells) [5]) | antagonism of C5aR1 compared to reference antibodies or to Avacopan (C5aR1) | Binding to Sulfated N-terminal peptide [6] |
| --- | --- | --- | --- | --- | --- | --- | --- |
| clone 11v2: anti-C5aR1 Site II antibody; VH SEQ ID NO: 482, VL SEQ ID NO: 542 (antibody, V domains shown) VH: QVQLQQSGPELVKPGASVKISCKASGYSFSSSWMNWVKQRPGKGLEWIGRISPGDGDTRYSGKFKGKATLTADKSSSTAYMQVTSLTSEDSAIYFCVRFLITSTRYVMDYWGQGTTVTVSS VL: DVVMTQTPLSLPVSLGDQASISCRSSQSLVHSNGNTYLHWYLQKPGQSPKLLIYKVSNRFSGVPDRFSGSGSGTDFTLKISRVEAEDLGVYFCSQSTLVPPTFGGGTKLEIK | inhibition of the C5a induced calcium efflux | inhibition of the C5a induced calcium efflux | − | + | strongest effects | improved | − |
| clone 322: anti-C5aR1 Site I antibody; VH SEQ ID NO: 491, VL SEQ ID NO: 551 (antibody, V domains shown) VH: QVQLQQSDAALVKPGASVKISCKASGHTFTDHAIHWVKQRPEQGLEWIGYISPGNGDIKYNDKFKGKATLTADKSSSTAYMQLNSLTPEDSAVYFCKGPLFVRGQYYITMDYWGQGTTVTVSS VL: DIVMTQSQKFMSTTVGDRVSITCKASQNVGAAVVWYQQKPGQSPKLLIYSASYRYSGVPDRFTGSGSGTDFTLTISNMQSEDLADYFCQQYNSFPLTFGGGTKLEIK |  |  |  |  |  | comparable |  |
